Results: PMC11230438

B1: N-TIMP2 (WT N-terminal domain of TIMP2 containing internal FLAG-tag, c-myc-tag and His-tag) (domain or fragment)
chain: CSCSPVHPQQAFCNADVVIRAKAVSEKEVDSGNDIYGNPIKRIQYEIKQIKMFKGPEDIEFIYTAPSSAVCGVSLDVGGKKEYLIAGKAEGDGKMHITLCDFIVPWDTLSTTQKKSLNHRYQMGCE
B2: N-TIMP2-PAT100 (protein)
chain: CSCSPVHPQQAFCNADVVIRAKAVSEKEVDSGNDIYGNPIKRIQYEIKQIKMFKGPEDIEFIYTAPSSAVCGVSLDVGGKKEYLIAGKAEGDGKMHITLCDFIVPWDTLSTTQKKSLNHRYQMGCETAPAAPATPAPTAPTPTPAAPAPTTPATPAPTPAAPAPAPTAPTAPAAPTAPATPAAPTTPTPTTPTPATPTPTAPAPATPTTPTPTAPAAPTPAPTTPA
B3: N-TIMP2-PAT200 (protein)
chain: CSCSPVHPQQAFCNADVVIRAKAVSEKEVDSGNDIYGNPIKRIQYEIKQIKMFKGPEDIEFIYTAPSSAVCGVSLDVGGKKEYLIAGKAEGDGKMHITLCDFIVPWDTLSTTQKKSLNHRYQMGCEATPTPAPTAPTTPTPTPTTPAPTTPTTPATPAPTTPATPAPTPATPTPAAPAPTTPTPAAPAPTPATPTAPAPTTPTAPTAPTPATPATPAAPTPTPTTPTTPTAPAAPTPTAPTAPAPTAPTAPTAPATPAAPATPTPAPTAPATPTPAAPTTPTAPTPTPTPAPATPAAPAPTPATPAAPTTPAAPTAPAAPTTPTPT

Biological target: high-stability mutant of the MMP-9 catalytic domain lacking the fibronectin-like domain (MMP9CAT*) (human) (UniProt P14780)
Test: enzymatic activity inhibition assay

Row | Binder | Ki [nM]
1 | B1 | 0.32
2 | B2 | 0.24
3 | B3 | 0.59
